Earlier results as cited in paper PMC9558565.

Target: p53p (Homo sapiens) (UniProt P04637)
Sequence (P04637 whole entry): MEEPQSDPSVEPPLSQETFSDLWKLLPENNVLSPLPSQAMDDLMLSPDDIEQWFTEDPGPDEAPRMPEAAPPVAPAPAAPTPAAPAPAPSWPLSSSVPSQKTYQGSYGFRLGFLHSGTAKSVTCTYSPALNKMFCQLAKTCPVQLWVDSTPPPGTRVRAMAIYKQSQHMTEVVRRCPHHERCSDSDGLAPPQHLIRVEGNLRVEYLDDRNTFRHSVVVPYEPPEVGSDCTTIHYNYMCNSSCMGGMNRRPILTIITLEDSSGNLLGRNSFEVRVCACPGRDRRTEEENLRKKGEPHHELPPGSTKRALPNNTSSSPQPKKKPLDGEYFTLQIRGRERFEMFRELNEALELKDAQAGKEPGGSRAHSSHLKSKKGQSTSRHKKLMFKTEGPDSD

MDM2, sequence (Q00987 whole entry): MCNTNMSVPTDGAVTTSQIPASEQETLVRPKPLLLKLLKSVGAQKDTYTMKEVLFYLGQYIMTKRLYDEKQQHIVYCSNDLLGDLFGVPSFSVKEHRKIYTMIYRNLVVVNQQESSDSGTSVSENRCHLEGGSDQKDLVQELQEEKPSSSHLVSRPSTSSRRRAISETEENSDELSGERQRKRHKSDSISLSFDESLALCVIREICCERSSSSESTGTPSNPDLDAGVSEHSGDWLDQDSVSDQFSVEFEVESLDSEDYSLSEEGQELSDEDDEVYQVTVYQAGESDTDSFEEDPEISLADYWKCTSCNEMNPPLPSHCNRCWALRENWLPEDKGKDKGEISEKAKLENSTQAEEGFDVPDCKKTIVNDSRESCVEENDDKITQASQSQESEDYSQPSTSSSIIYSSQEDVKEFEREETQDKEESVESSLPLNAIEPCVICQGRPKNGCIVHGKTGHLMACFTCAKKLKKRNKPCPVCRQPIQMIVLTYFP

MDM2 (from UniProt Q00987)
Kd: 46 nM
